Assay results: PMC9673926, “Nucleotide binding as an allosteric regulatory mechanism for Akkermansia muciniphila β-N-acetylhexosaminidase Am2136” (Gut Microbes, 2022)

Columns and labels:
Am2136 WT [1] = target: T1, Am2136 WT (Akkermansia muciniphila, UniProt B2UPR7); experiment: Nucleotide binding affinity by intrinsic fluorescence; conditions: Am2136 WT; fluorescence ex 286 nm/em 336 nm
T1 construct: The coding region (residue Q20-L756) of Am2136 without signal peptide was based on UniProt; 6XHis (N); made in house; host or cells: E. coli BL21 (DE3)
Description: The nucleotide binding ability was determined on Fluorescence Spectrometer Duetta (HORIBA) by measuring the change of peak intensity. The fluorescence was excited at 286 nm and emitted at 336 nm. And the measurement was processed under 400 V voltage with 2.5 nm excitation slit and 5 nm emission slit. […] The sample was incubated at 4°C for 5 min before testing.

Am2136 WT [2] = target: T1, Am2136 WT; experiment: Enzyme activity assay (pNP-β-GlcNAc hydrolysis) regulated by nucleotides; format: biochemical; conditions: WT; 1 mM nucleotide; substrate pNP-β-GlcNAc; 37°C
[3] = substrate: CC(=O)N[C@H]1[C@H](Oc2ccc([N+](=O)[O-])cc2)O[C@H](CO)[C@@H](O)[C@@H]1O; experiment: purified protein, by the assay type; conditions: pH 8.0
[4] = substrate: CC(=O)N[C@H]1[C@H](Oc2ccc([N+](=O)[O-])cc2)O[C@H](CO)[C@@H](O)[C@@H]1O; experiment: Release of 4-nitrophenolate from pNP-β-GlcNAc (0.125-4 mM) followed at 405 nm for 5 min with 2 μM enzyme in 25 mM Tris pH 8.0, 150 mM NaCl at 37 °C, no nucleotide.; format: biochemical
Source text: All experiments were repeated three times.

Molecule | Kd (Am2136 WT [1]) | Vmax (Am2136 WT [2]) | Km [4] | Vmax [4] | kcat/Km [4] | further results
Nc1ncnc2c1ncn2[C@@H]1O[C@H](COP(=O)(O)OP(=O)(O)O)[C@@H](O)[C@H]1O [ADP] | 255 ± 4.98 µM | 422 ± 6 µmol/min | – | – | – | –
Nc1ncnc2c1ncn2[C@@H]1O[C@H](COP(=O)(O)OP(=O)(O)OP(=O)(O)O)[C@@H](O)[C@H]1O [ATP] | 245 ± 5.99 µM | 442 ± 9 µmol/min | – | – | – | –
Nc1ccn([C@@H]2O[C@H](COP(=O)(O)OP(=O)(O)O)[C@@H](O)[C@H]2O)c(=O)n1 [CDP] | 157 ± 3.89 µM | 435 ± 6 µmol/min | – | – | – | –
Nc1ccn([C@@H]2O[C@H](COP(=O)(O)OP(=O)(O)OP(=O)(O)O)[C@@H](O)[C@H]2O)c(=O)n1 [CTP] | 167 ± 5.91 µM | 436 ± 7 µmol/min | – | – | – | –
Nc1nc2c(ncn2[C@@H]2O[C@H](COP(=O)(O)OP(=O)(O)OP(=O)(O)O)[C@@H](O)[C@H]2O)c(=O)[nH]1 [GTP] | 123 ± 3.76 µM | 449 ± 7 µmol/min | – | – | – | –
O=c1ccn([C@@H]2O[C@H](COP(=O)(O)OP(=O)(O)O)[C@@H](O)[C@H]2O)c(=O)[nH]1 [UDP] | 179 ± 7.71 µM | 429 ± 9 µmol/min | – | – | – | –
O=c1ccn([C@@H]2O[C@H](COP(=O)(O)OP(=O)(O)OP(=O)(O)O)[C@@H](O)[C@H]2O)c(=O)[nH]1 [UTP] | 199 ± 3.66 µM | 439 ± 7 µmol/min | – | – | – | –
Am2136 WT (Akkermansia muciniphila ATCC BAA-835) (protein) QDAKQIADSLSIPPVKAGAKQLPMPSVSGAQIKLLGADYEQLVNSKGKIAPVISDTPVNVSFKVTKDGKEAVSKDYEIMLQAPQAAQGNPKPRIIPEILQWKGGQGEYKLGNTVTIACPDKELGKLFAADMEDVLGKKVKLVAPGAKADISLSLLKGGNLGREGYRLQIARDGVRLGAAAPTGLFWGTRTLLQMLRQTPGSVPCGTAVDFPRYQLRGFMLDVARTPYPLSYLKDVIRTMAWYKMNDLHLVINNNYIFHEHYVDNGHDPFKESYAAFRLESKMKGKDGTPLTARDLFYTKKEFADLVSYARKYGVNIVPEFDTPGHALSFTRLRPDLIYKGPMNHEKRRCEMLDAANPETIDLVSKVFDEYMLKDPKLGRPVFADCGVVHVGADEFYGDKEDYRHFANAVLTHALKRGYTPRIWGSLSAKPGKTPVVSKGVQMNLWSTGWMKAWEAVNQGYDVINTNDGALYIVPFAGYYRMDRNHKGLYNNWIPNRIGNETLPSGHPQLLGGTFAVWNDETDIMHTGYAPYDIWGIISGSMDVLSQKLWGTAKAPDTFEQHRELVSSIGNAPRTNPLHKWKDSQPLTVKPSSLPQKLDKPALGPNYRLTMELELTAAPEGKEQVLLAAPEGELLAVMKDGTVGFRRDDSLEFSFGAKLPVGKKVKVEIVGEPEKTSLLLDGEPAGTAVLKNFSDKSKDFSDKFKHRPKVHRSTFILPLKELGSSFQGKVFHMNVQPL | – | – | – | – | – | Km [3]: 1530 ± 80 µM; Km ([3]; 37.0 °C): 1460 ± 50 µM
D57A+E59A+Q60A (Akkermansia muciniphila ATCC BAA-835; D57A/E59A/Q60A) (protein, residues Q20-L756 without signal peptide, N-terminal 6xHis-tag) QDAKQIADSLSIPPVKAGAKQLPMPSVSGAQIKLLGAAYAALVNSKGKIAPVISDTPVNVSFKVTKDGKEAVSKDYEIMLQAPQAAQGNPKPRIIPEILQWKGGQGEYKLGNTVTIACPDKELGKLFAADMEDVLGKKVKLVAPGAKADISLSLLKGGNLGREGYRLQIARDGVRLGAAAPTGLFWGTRTLLQMLRQTPGSVPCGTAVDFPRYQLRGFMLDVARTPYPLSYLKDVIRTMAWYKMNDLHLVINNNYIFHEHYVDNGHDPFKESYAAFRLESKMKGKDGTPLTARDLFYTKKEFADLVSYARKYGVNIVPEFDTPGHALSFTRLRPDLIYKGPMNHEKRRCEMLDAANPETIDLVSKVFDEYMLKDPKLGRPVFADCGVVHVGADEFYGDKEDYRHFANAVLTHALKRGYTPRIWGSLSAKPGKTPVVSKGVQMNLWSTGWMKAWEAVNQGYDVINTNDGALYIVPFAGYYRMDRNHKGLYNNWIPNRIGNETLPSGHPQLLGGTFAVWNDETDIMHTGYAPYDIWGIISGSMDVLSQKLWGTAKAPDTFEQHRELVSSIGNAPRTNPLHKWKDSQPLTVKPSSLPQKLDKPALGPNYRLTMELELTAAPEGKEQVLLAAPEGELLAVMKDGTVGFRRDDSLEFSFGAKLPVGKKVKVEIVGEPEKTSLLLDGEPAGTAVLKNFSDKSKDFSDKFKHRPKVHRSTFILPLKELGSSFQGKVFHMNVQPL | – | – | 1410 ± 60 µM | 432 µmol/min | 153000 ± 3000 M⁻¹ s⁻¹ | –
Y550A (Akkermansia muciniphila ATCC BAA-835; Y550A) (protein) QDAKQIADSLSIPPVKAGAKQLPMPSVSGAQIKLLGADYEQLVNSKGKIAPVISDTPVNVSFKVTKDGKEAVSKDYEIMLQAPQAAQGNPKPRIIPEILQWKGGQGEYKLGNTVTIACPDKELGKLFAADMEDVLGKKVKLVAPGAKADISLSLLKGGNLGREGYRLQIARDGVRLGAAAPTGLFWGTRTLLQMLRQTPGSVPCGTAVDFPRYQLRGFMLDVARTPYPLSYLKDVIRTMAWYKMNDLHLVINNNYIFHEHYVDNGHDPFKESYAAFRLESKMKGKDGTPLTARDLFYTKKEFADLVSYARKYGVNIVPEFDTPGHALSFTRLRPDLIYKGPMNHEKRRCEMLDAANPETIDLVSKVFDEYMLKDPKLGRPVFADCGVVHVGADEFYGDKEDYRHFANAVLTHALKRGYTPRIWGSLSAKPGKTPVVSKGVQMNLWSTGWMKAWEAVNQGYDVINTNDGALYIVPFAGYYRMDRNHKGLYNNWIPNRIGNETLPSGHPQLLGGTFAVWNDETDIMHTGYAPADIWGIISGSMDVLSQKLWGTAKAPDTFEQHRELVSSIGNAPRTNPLHKWKDSQPLTVKPSSLPQKLDKPALGPNYRLTMELELTAAPEGKEQVLLAAPEGELLAVMKDGTVGFRRDDSLEFSFGAKLPVGKKVKVEIVGEPEKTSLLLDGEPAGTAVLKNFSDKSKDFSDKFKHRPKVHRSTFILPLKELGSSFQGKVFHMNVQPL | – | – | – | – | – | Km ([3]; 37.0 °C): 1520 ± 40 µM
T545A+G546A (Akkermansia muciniphila ATCC BAA-835; G546A/T545A) (protein, residues Q20-L756 without signal peptide, N-terminal 6xHis-tag) QDAKQIADSLSIPPVKAGAKQLPMPSVSGAQIKLLGADYEQLVNSKGKIAPVISDTPVNVSFKVTKDGKEAVSKDYEIMLQAPQAAQGNPKPRIIPEILQWKGGQGEYKLGNTVTIACPDKELGKLFAADMEDVLGKKVKLVAPGAKADISLSLLKGGNLGREGYRLQIARDGVRLGAAAPTGLFWGTRTLLQMLRQTPGSVPCGTAVDFPRYQLRGFMLDVARTPYPLSYLKDVIRTMAWYKMNDLHLVINNNYIFHEHYVDNGHDPFKESYAAFRLESKMKGKDGTPLTARDLFYTKKEFADLVSYARKYGVNIVPEFDTPGHALSFTRLRPDLIYKGPMNHEKRRCEMLDAANPETIDLVSKVFDEYMLKDPKLGRPVFADCGVVHVGADEFYGDKEDYRHFANAVLTHALKRGYTPRIWGSLSAKPGKTPVVSKGVQMNLWSTGWMKAWEAVNQGYDVINTNDGALYIVPFAGYYRMDRNHKGLYNNWIPNRIGNETLPSGHPQLLGGTFAVWNDETDIMHAAYAPYDIWGIISGSMDVLSQKLWGTAKAPDTFEQHRELVSSIGNAPRTNPLHKWKDSQPLTVKPSSLPQKLDKPALGPNYRLTMELELTAAPEGKEQVLLAAPEGELLAVMKDGTVGFRRDDSLEFSFGAKLPVGKKVKVEIVGEPEKTSLLLDGEPAGTAVLKNFSDKSKDFSDKFKHRPKVHRSTFILPLKELGSSFQGKVFHMNVQPL | – | – | 3660 ± 690 µM | 264 µmol/min | 36000 ± 5000 M⁻¹ s⁻¹ | –
Y415A (Akkermansia muciniphila ATCC BAA-835; Y415A) (protein, residues Q20-L756 without signal peptide, N-terminal 6xHis-tag) QDAKQIADSLSIPPVKAGAKQLPMPSVSGAQIKLLGADYEQLVNSKGKIAPVISDTPVNVSFKVTKDGKEAVSKDYEIMLQAPQAAQGNPKPRIIPEILQWKGGQGEYKLGNTVTIACPDKELGKLFAADMEDVLGKKVKLVAPGAKADISLSLLKGGNLGREGYRLQIARDGVRLGAAAPTGLFWGTRTLLQMLRQTPGSVPCGTAVDFPRYQLRGFMLDVARTPYPLSYLKDVIRTMAWYKMNDLHLVINNNYIFHEHYVDNGHDPFKESYAAFRLESKMKGKDGTPLTARDLFYTKKEFADLVSYARKYGVNIVPEFDTPGHALSFTRLRPDLIYKGPMNHEKRRCEMLDAANPETIDLVSKVFDEYMLKDPKLGRPVFADCGVVHVGADEFAGDKEDYRHFANAVLTHALKRGYTPRIWGSLSAKPGKTPVVSKGVQMNLWSTGWMKAWEAVNQGYDVINTNDGALYIVPFAGYYRMDRNHKGLYNNWIPNRIGNETLPSGHPQLLGGTFAVWNDETDIMHTGYAPYDIWGIISGSMDVLSQKLWGTAKAPDTFEQHRELVSSIGNAPRTNPLHKWKDSQPLTVKPSSLPQKLDKPALGPNYRLTMELELTAAPEGKEQVLLAAPEGELLAVMKDGTVGFRRDDSLEFSFGAKLPVGKKVKVEIVGEPEKTSLLLDGEPAGTAVLKNFSDKSKDFSDKFKHRPKVHRSTFILPLKELGSSFQGKVFHMNVQPL | – | – | 2320 ± 80 µM | 399 µmol/min | 86000 ± 1000 M⁻¹ s⁻¹ | –
Δ D717-K727 (Akkermansia muciniphila ATCC BAA-835; DEL717-727) (protein, residues Q20-L756 without signal peptide, N-terminal 6xHis-tag; loop D717-K727 deleted) QDAKQIADSLSIPPVKAGAKQLPMPSVSGAQIKLLGADYEQLVNSKGKIAPVISDTPVNVSFKVTKDGKEAVSKDYEIMLQAPQAAQGNPKPRIIPEILQWKGGQGEYKLGNTVTIACPDKELGKLFAADMEDVLGKKVKLVAPGAKADISLSLLKGGNLGREGYRLQIARDGVRLGAAAPTGLFWGTRTLLQMLRQTPGSVPCGTAVDFPRYQLRGFMLDVARTPYPLSYLKDVIRTMAWYKMNDLHLVINNNYIFHEHYVDNGHDPFKESYAAFRLESKMKGKDGTPLTARDLFYTKKEFADLVSYARKYGVNIVPEFDTPGHALSFTRLRPDLIYKGPMNHEKRRCEMLDAANPETIDLVSKVFDEYMLKDPKLGRPVFADCGVVHVGADEFYGDKEDYRHFANAVLTHALKRGYTPRIWGSLSAKPGKTPVVSKGVQMNLWSTGWMKAWEAVNQGYDVINTNDGALYIVPFAGYYRMDRNHKGLYNNWIPNRIGNETLPSGHPQLLGGTFAVWNDETDIMHTGYAPYDIWGIISGSMDVLSQKLWGTAKAPDTFEQHRELVSSIGNAPRTNPLHKWKDSQPLTVKPSSLPQKLDKPALGPNYRLTMELELTAAPEGKEQVLLAAPEGELLAVMKDGTVGFRRDDSLEFSFGAKLPVGKKVKVEIVGEPEKTSLLLDGEPAGTAVLKNFSDKSKVHRSTFILPLKELGSSFQGKVFHMNVQPL | – | – | 6560 ± 410 µM | 144 µmol/min | 11000 ± 1000 M⁻¹ s⁻¹ | –
